Residue numbers refer to the chain shown, from its start. Like-named read-outs stand apart in the source and are kept apart here.
B1: 2B5-8.0: recombinant anti-PGE2 antibody from solved 2B5 sequence; VH SEQ ID NO 42, VL SEQ ID NO 43 (antibody, V domains shown)
VH: QVQLQQSGPELVRPGSSVKISCKASGYTFTKYWLGWVKQRPGHGLEWIGDIYPGYDYTHYNEKFKDKATLTVDTSSSTAYMQLSSLTSEDSAIYYCARSDGSSTYWGQGTLVTVSA
VL: DVLMTQTPLSLPVSLGDQASISCTSSQNIVHSNGNTYLEWYLQRPGQSPKLLIYKVSNRFSGVPDRFSGSGSGTVFTLKISRVEAEDLGVYYCFQVSHVPYTFGGGTKLEIKR
B2: Hu2B5.8: humanized 2B5-8.0; VH SEQ ID NO 74, VL SEQ ID NO 75 (antibody, V domains shown)
VH: EVQLVQSGAEVKKPGASVKVSCKASGYTFTKYWLGWVRQAPGQGLEWMGDIYPGYDYTHYNEKFKDRVTLTTDTSTSTAYMELSSLRSDDTAVYYCARSDGSSTYWGQGTLVTVSS
VL: B1 VL with S14T, L15P, D17E, Q18P, R44K, K50Q, V75D, L88V, L109V
B3: Hu2B5.1: humanized 2B5-8.0; VH SEQ ID NO 60, VL SEQ ID NO 61 (antibody, V domains shown)
VH: B2 VH with M48I, V68A, T72V, S84R
VL: B1 VL with L3V, S14T, L15P, D17E, Q18P, R44K, K50Q, V75D, L88V, L109V
B4: Hu2B5.2: humanized 2B5-8.0; VH SEQ ID NO 62, VL SEQ ID NO 63 (antibody, V domains shown)
VH: B2 VH with M48I, V68A, T72V
VL: B1 VL with L3V, S14T, L15P, D17E, Q18P, R44K, K50Q, V75D, L88V, L109V
B5: Hu2B5.6: humanized 2B5-8.0; VH SEQ ID NO 70, VL SEQ ID NO 71 (antibody, V domains shown)
VH: B2 VH
VL: B1 VL with L3V, S14T, L15P, D17E, Q18P, R44K, K50Q, V75D, L88V, L109V
B6: Hu2B5.4: humanized 2B5-8.0; VH SEQ ID NO 66, VL SEQ ID NO 67 (antibody, V domains shown)
VH: B2 VH with M48I, V68A, T72V
VL: B1 VL with S14T, L15P, D17E, Q18P, R44K, K50Q, V75D, L88V, L109V
B7: Hu2B5.3: humanized 2B5-8.0; VH SEQ ID NO 64, VL SEQ ID NO 65 (antibody, V domains shown)
VH: B2 VH with M48I, V68A, T72V, S84R
VL: B1 VL with S14T, L15P, D17E, Q18P, R44K, K50Q, V75D, L88V, L109V

Legend:
[1] = system: PGE2 induced Ca++ influx in HEK293 Gα16 cells stably transfected with human EP4 receptor; experiment: EP4 bioassay: PGE2 induced Ca++ flux (FLIPR); type: cell-based
Experimental: The ability of anti-PGE2 antibody to inhibit cellular response of PGE2 in vitro was determined in a Ca^++ flux assay in HEK293 Gα16 cells (Abbott Bioresearch Center, Worcester, Mass.) stably transfected with human EP4 receptor. In brief, an expression plasmid encoding one of the four human PGE2 receptors, EP4, and an expression plasmid encoding Gα16, were co-transfected into human embryonic kidney cell line 293 cells (ATCC# CRL1573, Manassas, Va.). The stable clones co-expressing both human EP4 and Gα16 protein were selected using standard methods (Joseph Sambrook and David W. Russell. Molecular Cloning: A Laboratory Manual Publisher. Published by Cold Spring Harbor Laboratory Press, 2001) and used for the EP4 bioassay. The HEK293 Gα16 cells were plated in black/clear poly-D-lysine plates (Corning #3667, Corning, N.Y.) and incubated with a Ca^++-sensitive dye (Molecular Devices, Sunnyvale, Calif.) for 90 minutes. Stock PGE2 (in 200 proof ethanol) was diluted with FLIPR buffer [containing 1×HBSS (Invitrogen Carlsbad, Calif.), 20 mM HEPES (Invitrogen Carlsbad, Calif.), 0.1% BSA (Sigma, St. Louis, Mo.) and 2.5 mM Probenecid (Sigma, St. Louis, Mo.)]. Anti-PGE2 antibodies or isotype matched control antibodies were also pre-diluted in FLIPR buffer. 25 μl of PGE2 or pre-incubated PGE2/antibody mixture was added to the wells pre-plated with cells. The dose response of PGE2 was determined on a serial titration of PGE2 and using FLIPR1 or Tetra (Molecular Devices, Sunnyvale, Calif.) and EC50 was determined using GraphPad Prism 5 (GraphPad Software, La Jolla, Calif.). […] Ca^++ flux was monitored using FLIPR1 and data was analyzed using GraphPad Prism 5 (GraphPad Software, La Jolla, Calif.).

[2] = Accelerated stability screening monitored by SEC; type: physicochemical; details: SEC
Experimental: Size exclusion chromatography was used to separate proteins based on size. Proteins are carried in an aqueous mobile phase and through a porous stationary phase resin packed in a column. The retention time in the column is a function of the hydrodynamic size of the protein and the size of the pores in the packed resin bed. Smaller molecules can penetrate into smaller pores in the resin and are retained longer than larger molecules. Upon elution from the column the proteins are detected by UV absorbance. The SEC method used a TSK gel guard (TOSOH Biosciences, Montgomeryville, Pa., cat. no. 08543) and a TSK gel G3000SWxL (TOSOH Biosciences, Montgomeryville, Pa., cat. no. 08541). The mobile phase was 100 mM Na2HPO4, 200 mM Na2SO4, pH 7.0. The flow rate was 0.3 mL/minute. Injection volume was 20 μL of 1 mg/mL sample. The column temperature was room temperature. The autosampler temperature was 2-8° C. The total run time was 50 minutes. The detection was based on UV absorbance at 214 nm wavelength, with band width set at 8 nm, using reference wavelength at 360 nm with band width 100 nm.
The stability of a series of clones (i.e., anti-PGE2 antibodies) of the parent anti-PGE2 antibody was assessed by using intrinsic thermodynamic clone stability determination using DSC (0.79 mg/mL clone concentration, formulated at pH 6 in a 10 mM citrate, 10 mM phosphate buffer) and by accelerated stability screening (0.79 mg/mL clone concentration, formulated at pH 6 in a 10 mM citrate, 10 mM phosphate buffer, for 7 days at 50° C.) where clone stability was monitored with SEC (Table 15).

[3] = Biotin-PGE2 ELISA (PGE2-biotinamide binding to captured IgG)
[4] = PGE2 25 pm, read-out: IC50 (pM) @ PGE2 25 pm Cellular Potency in EP4 assay
[5] = start of stability study, 0.79 mg/mL, pH 6

Molecule	inhibition of PGE2 induced calcium influx in EP4 bioassay [1]	IC50 ([1]; read-out: PGE2 Neutralization Potency in Cellular EP4 assay (IC50))	IC50 [1, 4]	Aggregate (%) ([2]; 7 days storage at 50° C.)	Fragment (%) ([2]; 7 days storage at 50° C.)	Monomer (%) ([2]; 7 days storage at 50° C.)	Fragment (%) ([2]; start of stability study)	Monomer (%) ([2]; start of stability study)	Aggregate (%) [2, 5]	EC50 [3]
B1	potently inhibited	44 pM								
B2			78 pM	2.5144%	4.184%	93.3016%	3.2904%	94.5969%	2.1126%	87 pM
B3			55 pM	2.5611%	6.3675%	91.0715%	4.4044%	93.7885%	1.8071%	63 pM
B4			55 pM	2.1753%	4.6755%	93.1491%	3.3025%	94.8516%	1.846%	55 pM
B5			52 pM	2.1577%	4.0253%	93.817%	2.7275%	95.446%	1.8265%	89 pM
B6			40 pM	2.1689%	6.5423%	91.2889%	3.2146%	94.5513%	2.234%	57 pM
B7			47 pM	2.6042%	5.044%	92.3518%	3.6853%	94.1987%	2.116%	59 pM

Source: patent US8624002B2, “Prostaglandin E2 binding proteins and uses thereof” (AbbVie, Inc., priority 2008, dated 2014)
